Experimental findings from the Human Domainome abundance scans (Beltran et al. 2025) are described below.

± gives the uncertainty stated by the source.

B1: Cell division cycle and apoptosis regulator protein 1, residues 625 to 674; numbered along this chain, Q8IX12 (parent)
chain: ISTPTHWSKLDPKTMKVNDLRKELESRALSSKGLKSQLIARLTKQLKVEE

The series covers variants of B1. Description: abundance fitness (aPCA) (normalised: wild type 0, dead -1); higher = more abundant; growth selection in yeast, the domain comes from the species named. To be noted: Homo sapiens.
As for ISTPTHWSKLDPKTMKVNDLRKELESRALSSKGLESQLIARLTKQLKVEE [K35E], the abundance fitness was -0.074 ± 0.048.
Consider ISTPTHWSKLDPKTMKVNDLRKELESRALSSKGLYSQLIARLTKQLKVEE [K35Y], for which the abundance fitness is -0.333 ± 0.045.
The same measure for ISTPTHWSKLDPKTMKVNDLRKELESRALSSKGLLSQLIARLTKQLKVEE [K35L]: -0.243 ± 0.043.
As to ISTPTHWSKLDPKTMKVNDLRKELESRALSSKGLTSQLIARLTKQLKVEE [K35T], the abundance fitness is -0.276 ± 0.061.
The same measure for ISTPTHWSKLDPKTMKVNDLRKELESRALSSKGLISQLIARLTKQLKVEE [K35I]: -0.249 ± 0.055; for ISTPTHWSKLDPKTMKVNDLRKELESRALSSKGLDSQLIARLTKQLKVEE [K35D]: -0.212 ± 0.054.
As for ISTPTHWSKLDPKTMKVNDLRKELESRALSSKGLGSQLIARLTKQLKVEE [K35G], the abundance fitness was -0.356 ± 0.031.
With ISTPTHWSKLDPKTMKVNDLRKELESRALSSKGLCSQLIARLTKQLKVEE [K35C], the abundance fitness was -0.355 ± 0.058.
For the variant ISTPTHWSKLDPKTMKVNDLRKELESRALSSKGLNSQLIARLTKQLKVEE [K35N], the abundance fitness is -0.212 ± 0.054.
ISTPTHWSKLDPKTMKVNDLRKELESRALSSKGLSSQLIARLTKQLKVEE [K35S]: the abundance fitness was -0.288 ± 0.044.
For ISTPTHWSKLDPKTMKVNDLRKELESRALSSKGLMSQLIARLTKQLKVEE [K35M], the abundance fitness was -0.244 ± 0.048.
Consider ISTPTHWSKLDPKTMKVNDLRKELESRALSSKGLQSQLIARLTKQLKVEE [K35Q], for which the abundance fitness is -0.299 ± 0.08.
For ISTPTHWSKLDPKTMKVNDLRKELESRALSSKGLASQLIARLTKQLKVEE [K35A] the value was -0.341 ± 0.051; for ISTPTHWSKLDPKTMKVNDLRKELESRALSSKGLFSQLIARLTKQLKVEE [K35F], -0.419 ± 0.08; for ISTPTHWSKLDPKTMKVNDLRKELESRALSSKGLWSQLIARLTKQLKVEE [K35W], -0.482 ± 0.032.
As for ISTPTHWSKLDPKTMKVNDLRKELESRALSSKGLVSQLIARLTKQLKVEE [K35V], the abundance fitness was -0.264 ± 0.038.
ISTPTHWSKLDPKTMKVNDLRKELESRALSSKGLKSHLIARLTKQLKVEE [Q37H]: the abundance fitness was -0.455 ± 0.11.
Take ISTPTHWSKLDPKTMKVNDLRKELESRALSSKGLKSRLIARLTKQLKVEE [Q37R]: the abundance fitness is -0.168 ± 0.032.
For ISTPTHWSKLDPKTMKVNDLRKELESRALSSKGLKSVLIARLTKQLKVEE [Q37V], the abundance fitness amounted to 0.002 ± 0.033.
For ISTPTHWSKLDPKTMKVNDLRKELESRALSSKGLKSILIARLTKQLKVEE [Q37I], the abundance fitness is -0.513 ± 0.056.
In the case of ISTPTHWSKLDPKTMKVNDLRKELESRALSSKGLKSSLIARLTKQLKVEE [Q37S], the abundance fitness was -0.061 ± 0.035.
Turning to ISTPTHWSKLDPKTMKVNDLRKELESRALSSKGLKSKLIARLTKQLKVEE [Q37K], the abundance fitness is -0.108 ± 0.037.
For ISTPTHWSKLDPKTMKVNDLRKELESRALSSKGLKSMLIARLTKQLKVEE [Q37M], the abundance fitness is -0.042 ± 0.034.
Turning to ISTPTHWSKLDPKTMKVNDLRKELESRALSSKGLKSALIARLTKQLKVEE [Q37A], the abundance fitness is 0.004 ± 0.048.
Take ISTPTHWSKLDPKTMKVNDLRKELESRALSSKGLKSELIARLTKQLKVEE [Q37E]: the abundance fitness is 0.058 ± 0.051.
With ISTPTHWSKLDPKTMKVNDLRKELESRALSSKGLKSFLIARLTKQLKVEE [Q37F], the abundance fitness was -0.256 ± 0.047.
Turning to ISTPTHWSKLDPKTMKVNDLRKELESRALSSKGLKSPLIARLTKQLKVEE [Q37P], the abundance fitness was -0.231 ± 0.054.
Consider ISTPTHWSKLDPKTMKVNDLRKELESRALSSKGLKSCLIARLTKQLKVEE [Q37C], for which the abundance fitness is -0.04 ± 0.054.
The same measure for ISTPTHWSKLDPKTMKVNDLRKELESRALSSKGLKSTLIARLTKQLKVEE [Q37T]: -0.093 ± 0.032.
Consider ISTPTHWSKLDPKTMKVNDLRKELESRALSSKGLKSLLIARLTKQLKVEE [Q37L], for which the abundance fitness was -0.178 ± 0.03.
For the variant ISTPTHWSKLDPKTMKVNDLRKELESRALSSKGLKSGLIARLTKQLKVEE [Q37G], the abundance fitness was -0.253 ± 0.038.
Consider ISTPTHWSKLDPKTMKVNDLRKELESRALSSKGTKSQLIARLTKQLKVEE [L34T], for which the abundance fitness was -0.06 ± 0.045.
In the case of ISTPTHWSKLDPKTMKVNDLRKELESRALSSKGQKSQLIARLTKQLKVEE [L34Q], the abundance fitness was -0.015 ± 0.037.
Regarding ISTPTHWSKLDPKTMKVNDLRKELESRALSSKGSKSQLIARLTKQLKVEE [L34S], the abundance fitness was -0.016 ± 0.037.
For ISTPTHWSKLDPKTMKVNDLRKELESRALSSKGYKSQLIARLTKQLKVEE [L34Y] the value was -0.033 ± 0.063; for ISTPTHWSKLDPKTMKVNDLRKELESRALSSKGWKSQLIARLTKQLKVEE [L34W], -0.151 ± 0.034.
For ISTPTHWSKLDPKTMKVNDLRKELESRALSSKGRKSQLIARLTKQLKVEE [L34R] the value was 0.048 ± 0.034; for ISTPTHWSKLDPKTMKVNDLRKELESRALSSKGLKVQLIARLTKQLKVEE [S36V], -0.105 ± 0.043.
For ISTPTHWSKLDPKTMKVNDLRKELESRALSSKGLKPQLIARLTKQLKVEE [S36P] the value was -0.005 ± 0.048; for ISTPTHWSKLDPKTMKVNDLRKELESRALSSKGLKFQLIARLTKQLKVEE [S36F], -0.186 ± 0.05.
On to ISTPTHWSKLDPKTMKVNDLRKELESRALSSKGLKDQLIARLTKQLKVEE [S36D], for which the abundance fitness is -0.085 ± 0.065.
For ISTPTHWSKLDPKTMKVNDLRKELESRALSSKGLKKQLIARLTKQLKVEE [S36K] the value was -0.118 ± 0.062.
ISTPTHWSKLDPKTMKVNDLRKELESRALSSKGLKWQLIARLTKQLKVEE [S36W]: the abundance fitness was -0.114 ± 0.032.
Regarding ISTPTHWSKLDPKTMKVNDLRKELESRALSSKGLKAQLIARLTKQLKVEE [S36A], the abundance fitness was -0.121 ± 0.043.
Turning to ISTPTHWSKLDPKTMKVNDLRKELESRALSSKGLKTQLIARLTKQLKVEE [S36T], the abundance fitness is -0.049 ± 0.052.
Turning to ISTPTHWSKLDPKTMKVNDLRKELESRALSSKGLKRQLIARLTKQLKVEE [S36R], the abundance fitness was -0.115 ± 0.032.
The same measure for ISTPTHWSKLDPKTMKVNDLRKELESRALSSKGLKYQLIARLTKQLKVEE [S36Y]: -0.115 ± 0.043; for ISTPTHWSKLDPKTMKVNDLRKELESRALSSKGLKNQLIARLTKQLKVEE [S36N]: -0.146 ± 0.064.
Turning to ISTPTHWSKLDPKTMKVNDLRKELESRALSSKGLKHQLIARLTKQLKVEE [S36H], the abundance fitness was -0.195 ± 0.058.
Consider ISTPTHWSKLDPKTMKVNDLRKELESRALSSKGLKLQLIARLTKQLKVEE [S36L], for which the abundance fitness is -0.159 ± 0.037.
For the variant ISTPTHWSKLDPKTMKVNDLRKELESRALSSKGLKEQLIARLTKQLKVEE [S36E], the abundance fitness is -0.151 ± 0.047.
The same measure for ISTPTHWSKLDPKTMKVNDLRKELESRALSSKGLKMQLIARLTKQLKVEE [S36M]: -0.169 ± 0.05.
